Experimental data published in article PMC8189816, “Molecular Basis for the Interactions of Human Thioredoxins with Their Respective Reductases” (Oxidative Medicine and Cellular Longevity, 2021).

T1: recombinant selenocysteine-containing rat TrxR1 (rat, UniProt O89049 1-499, selenocysteine (selenocysteine-containing; low degree of incorporation presumed by the paper))
T1 construct: rat cytosolic thioredoxin reductase 1, selenocysteine-containing; Used for all enzymatic assays (insulin reduction); also called recombinant selenocysteine-containing TrxR
T1 sequence (looked up): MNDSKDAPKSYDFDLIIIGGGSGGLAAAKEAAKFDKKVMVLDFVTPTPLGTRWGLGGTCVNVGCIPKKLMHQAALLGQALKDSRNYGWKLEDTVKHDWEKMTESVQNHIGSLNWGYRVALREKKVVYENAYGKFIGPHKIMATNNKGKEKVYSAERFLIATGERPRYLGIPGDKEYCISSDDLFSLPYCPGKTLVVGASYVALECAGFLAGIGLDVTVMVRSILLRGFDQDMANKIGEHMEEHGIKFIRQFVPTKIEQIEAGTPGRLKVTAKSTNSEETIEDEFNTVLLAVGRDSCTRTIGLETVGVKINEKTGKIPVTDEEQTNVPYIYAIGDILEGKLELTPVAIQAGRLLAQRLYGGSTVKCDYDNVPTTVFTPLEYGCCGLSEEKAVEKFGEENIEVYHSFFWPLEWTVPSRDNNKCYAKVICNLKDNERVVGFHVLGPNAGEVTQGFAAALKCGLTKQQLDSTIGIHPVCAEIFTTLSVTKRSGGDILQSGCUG


What was measured:
[1] = molecular target: recombinant selenocysteine-containing rat TrxR1 (rat) (UniProt O89049)
[2] = molecular target: human thioredoxin reductase 1 (TrxR1) U498C mutant (human) (UniProt Q16881); assay: differential scanning fluorimetry; 10 uM hTrxR (U498C), hTrx1 0 to 100 uM, Sypro Orange 1:500, 50 mM Tris, 1 mM EDTA, pH 7.4; Tm of the first denaturation step of TrxR plotted against log [Trx] (Hill plot), EC50 converted to Kd
[3] = molecular target: T1, recombinant selenocysteine-containing …; assay: enzyme inhibition kinetics (insulin reduction assay, NADPH depletion); 1.25 nM recombinant rat selenocysteine-containing TrxR, 150 uM NADPH, 160 uM insulin, 50 mM Tris-EDTA pH 7.5; Lineweaver-Burk plots, Ki from secondary plot of slopes against the concentration of the redox-inactive mutant; details: both partners purified

KM of TrxR1 for the Trx1 variant, insulin reduction-coupled assay [1] [µM] | Kd [2] [µM] | Ki [3] [µM] | Binder
1.45 | 9.68 |  | human Trx1 K39E (natural protein) MVKQIESKTAFQEALDAAGDKLVVVDFSATWCGPCKMIEPFFHSLSEKYSNVIFLEVDVDDCQDVASECEVKCMPTFQFFKKGQKVGEFSGANKEKLEATINELV
9.82 | 5.28 |  | human Trx1 K36E (natural protein) MVKQIESKTAFQEALDAAGDKLVVVDFSATWCGPCEMIKPFFHSLSEKYSNVIFLEVDVDDCQDVASECEVKCMPTFQFFKKGQKVGEFSGANKEKLEATINELV
3.78 |  |  | human Trx1 K94E (natural protein) MVKQIESKTAFQEALDAAGDKLVVVDFSATWCGPCKMIKPFFHSLSEKYSNVIFLEVDVDDCQDVASECEVKCMPTFQFFKKGQKVGEFSGANEEKLEATINELV
1.24 |  |  | human Trx1 C73H (natural protein) MVKQIESKTAFQEALDAAGDKLVVVDFSATWCGPCKMIKPFFHSLSEKYSNVIFLEVDVDDCQDVASECEVKHMPTFQFFKKGQKVGEFSGANKEKLEATINELV
2.22 |  |  | human Trx1 K72E (natural protein) MVKQIESKTAFQEALDAAGDKLVVVDFSATWCGPCKMIKPFFHSLSEKYSNVIFLEVDVDDCQDVASECEVECMPTFQFFKKGQKVGEFSGANKEKLEATINELV
2.73 |  |  | human Trx1 A17R,I53R (natural protein) MVKQIESKTAFQEALDRAGDKLVVVDFSATWCGPCKMIKPFFHSLSEKYSNVRFLEVDVDDCQDVASECEVKCMPTFQFFKKGQKVGEFSGANKEKLEATINELV
7.09 |  |  | human Trx1 Q63R,K94E (natural protein) MVKQIESKTAFQEALDAAGDKLVVVDFSATWCGPCKMIKPFFHSLSEKYSNVIFLEVDVDDCRDVASECEVKCMPTFQFFKKGQKVGEFSGANEEKLEATINELV
 | 13.6 |  | human thioredoxin 1 (Trx1), wild-type (natural protein) MVKQIESKTAFQEALDAAGDKLVVVDFSATWCGPCKMIKPFFHSLSEKYSNVIFLEVDVDDCQDVASECEVKCMPTFQFFKKGQKVGEFSGANKEKLEATINELV
6.37 |  |  | human Trx1 Q63R (natural protein) MVKQIESKTAFQEALDAAGDKLVVVDFSATWCGPCKMIKPFFHSLSEKYSNVIFLEVDVDDCRDVASECEVKCMPTFQFFKKGQKVGEFSGANKEKLEATINELV
1.36 |  |  | human Trx1 S67H (natural protein) MVKQIESKTAFQEALDAAGDKLVVVDFSATWCGPCKMIKPFFHSLSEKYSNVIFLEVDVDDCQDVAHECEVKCMPTFQFFKKGQKVGEFSGANKEKLEATINELV
3.26 |  |  | human Trx1 D60N (natural protein) MVKQIESKTAFQEALDAAGDKLVVVDFSATWCGPCKMIKPFFHSLSEKYSNVIFLEVDVNDCQDVASECEVKCMPTFQFFKKGQKVGEFSGANKEKLEATINELV
5.83 |  |  | human Trx1 D58,60,61N (natural protein) MVKQIESKTAFQEALDAAGDKLVVVDFSATWCGPCKMIKPFFHSLSEKYSNVIFLEVNVNNCQDVASECEVKCMPTFQFFKKGQKVGEFSGANKEKLEATINELV
 | 9.8 | 5.3 | human Trx1 C32,35S (redox-inactive active site double mutant) (natural protein, UniProt P10599 1-105, looked up, human cytosolic thioredoxin 1, both active site cysteinyl residues exchanged for seryl residues; also called hTrx1C32,35S; double cysteinyl mutant) MVKQIESKTAFQEALDAAGDKLVVVDFSATWSGPSKMIKPFFHSLSEKYSNVIFLEVDVDDCQDVASECEVKCMPTFQFFKKGQKVGEFSGANKEKLEATINELV
